Consider one sequence from US20030032785.

The test system of data set [1] is T1, VEGF165 (vascular endothelial growth factor, 165 aa form) (Homo sapiens), P15692-4.
T1 sequence: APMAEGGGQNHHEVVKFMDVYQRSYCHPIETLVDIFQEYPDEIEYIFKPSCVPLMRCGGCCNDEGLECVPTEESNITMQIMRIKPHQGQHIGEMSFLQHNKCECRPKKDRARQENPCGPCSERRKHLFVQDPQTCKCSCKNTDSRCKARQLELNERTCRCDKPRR
Description: filter. The conditions noted are these: 2'-NH2 at all C and U; 2'-OMe A5,A16,G13,G17,G20,G24-26,G28; PS 2'-deoxy T caps 1-4 and 29-33.

Data set [2] has the same test system. Description: competition. Particulars: 2'-NH2 at all C and U; 2'-OMe A5,A16,G13,G17,G20,G24-26,G28; PS 2'-deoxy T caps 1-4 and 29-33; 125I-VEGF receptor binding.

In the case of “TTTACCCUGAUGGUAGACGCCGGGGUGTTTTT [NX-214]”, the Kd (usually the concentration at which binding is half-saturated) in data set [1] is 200 pM. Moreover, the Ki – broadly, the equilibrium dissociation constant of an inhibitor or competing ligand from its target – in data set [2] came to 1000 pM.
